± gives the uncertainty stated by the source.
Assay: protein stability index of a GFP-peptide fusion (yeast GPS) (PSI 1-4); higher = more stable; sorted into four equal gates, so the index is relative within each strain
Conditions: doa10∆
Summary of the method: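 The protein stability index of a peptide was calculated by multiplying its read frequency in each gate by that gate's number and adding the products. The peptides were tiled 17-residue stretches of yeast proteins, fused downstream of GFP on a Cherry-expressing plasmid and carried in yeast as a pooled library. Mid-log cultures in leucine-free medium were sorted into four equal gates by GFP/Cherry ratio, and each gate's plasmids were PCR-amplified and Illumina-sequenced.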

First: SVVSMSNDVLKPETPKG [SIR2]
Second: SYDKTVKLWEEDPDQEE [YGL100W/SEH1]
The protein stability index of the first is lower: 3.01 ± 0.073 for the first, 3.32 ± 0.12 for the second.

Same assay, conditions: pdr5∆

Compared with SLGIAQPKGVILYGPPG [RPT6], SLHSNSFSLTVSKEQFL [YJL039C/NUP192] is lower in protein stability index: 2.89 ± 0.072 for the first, 1.8 ± 0.072 for the second.

SLKLENSDLEGKIRGVE [SMC2] and SLLDKPDEAIEKVFNAY [FAS1] are within error of each other in protein stability index: 3.37 ± 0.064 for the first, 3.34 ± 0.099 for the second.

Compared with SLSDNDLAVCATIIGII [ECM29], SLSIKLATLHYQKKQYK [RPN6] is lower in protein stability index: 2.83 ± 0.056 for the first, 1.28 ± 0.061 for the second.

First: SLWRRTVYSLSQQAGLD [YDL116W/NUP84]
Second: SMCGFEVRILPRQRMEE [PRP8]
The protein stability index of the first is higher: 2.39 ± 0.28 for the first, 1.87 ± 0.053 for the second.

Compared with SMNVTLGVPRIKEIINA [RPO31], SNEDVMMTGAEQDPYSN [RPB3] is higher in protein stability index: 2.56 ± 0.048 for the first, 3.09 ± 0.079 for the second.

SNEEKEKIKMKLKQGQK [GAL11] and SNEEQRNLDSATLKEIK [SMC3] are within error of each other in protein stability index: 3.37 ± 0.12 for the first, 3.21 ± 0.13 for the second.

Compared with SNGGNNMLPQRQSSVGS [SNF2], SNKKETKKKRKPTEVND [ITC1] is higher in protein stability index: 2.18 ± 0.097 for the first, 3.31 ± 0.074 for the second.

Going from SNLAATKSMVKIAEQYS [RPN11] to SNMFDNSADVDMDAQGR [YGL100W/SEH1], the protein stability index rises from 2.73 ± 0.064 to 3.55 ± 0.076.

SNNTGNTAFGNSNPTSN [YJL041W/NSP1] and SNQLISNYAASNSMDRS [SWI1] are the same in protein stability index: 3.19 ± 0.13 for the first, 3.19 ± 0.15 for the second.

SNRLHPPDIHPNLGPQL [GRR1] and SNSTPNANQQFLPFNNS [SWI1] are within error of each other in protein stability index: 3.09 ± 0.059 for the first, 3.19 ± 0.058 for the second.

First: SNSVFSPDGRNFQVEYA [PRE10]
Second: SNYDWLFQLLNALTVGD [RPN9]
The protein stability index of the first is higher: 2.91 ± 0.059 for the first, 2.52 ± 0.075 for the second.

SPAALKQLASLKKSEEI [YMR153W/NUP53] and SPASGIVDKYIGESARI [RPT4] are within error of each other in protein stability index: 2.85 ± 0.13 for the first, 2.84 ± 0.18 for the second.

First: SPELKAELRPLQFKSIR [RPS7A]
Second: SPFFVLDEVDAALDITN [SMC1]
The protein stability index of the first is higher: 3.54 ± 0.11 for the first, 2.78 ± 0.071 for the second.

SPMLKRIKITANNNMND [GRR1] and SPRNTYQCAMGKQAIGA [RET1] are within error of each other in protein stability index: 2.4 ± 0.078 for the first, 2.57 ± 0.14 for the second.

SPSYSPTSPAYSPTSPS [RPO21] and SPSYSPTSPNYSPTSPS [RPO21] are within error of each other in protein stability index: 2.85 ± 0.052 for the first, 2.94 ± 0.04 for the second.

Compared with SPTESYSDIGGLESQIQ [RPT2], SPYAAMLAAQDVAAKCK [RPS14A] is lower in protein stability index: 3.53 ± 0.14 for the first, 1.82 ± 0.048 for the second.

Compared with SQASSDLGETFRGIIRS [CSL4], SQDTKVICSVTGPIEPK [RRP46] is lower in protein stability index: 2.96 ± 0.081 for the first, 1.72 ± 0.072 for the second.

SQLQPQPQPQPQQQQQH [YDL088C/ASM4] and SQPSKKSFANHTEDEQI [SIR4] are within error of each other in protein stability index: 2.95 ± 0.074 for the first, 2.84 ± 0.052 for the second.

SQQAGLDPYERAIYSYL [YDL116W/NUP84] and SREIAQPSSSRYNGGND [SMB1] are within error of each other in protein stability index: 3.19 ± 0.083 for the first, 3.22 ± 0.071 for the second.

Going from SRGESDDSLNRLAQNDG [RPS21A] to SRIYKTIKVAGTPLLEV [SNU114], the protein stability index falls from 2.9 ± 0.14 to 2.38 ± 0.055.

First: SRKAHGLNAKQLYKARM [POP1]
Second: SRKGIAFGLGAIMSKSS [ECM29]
The protein stability index of the first is higher: 3.4 ± 0.12 for the first, 1.86 ± 0.054 for the second.

Going from SRKRAKKMTKKAKRSNL [PRP8] to SRKRKPKSASNTSSKRQ [IRR1], the protein stability index rises from 2.16 ± 0.069 to 2.7 ± 0.14.

Going from SRPASYGYFSVGKRVPI [SIR4] to SRRWRQRKNIQSLELMI [BRR2], the protein stability index falls from 2.14 ± 0.11 to 1.88 ± 0.073.

First: SRTFDKYSKLVDNVTLE [SRP72]
Second: SRYILFEIIFPPTDTNV [POP5]
The protein stability index of the first is higher: 3.36 ± 0.1 for the first, 1.41 ± 0.052 for the second.

Compared with SSFEENNDLESVSMLLQ [RRI2], SSFVRQELAKSIRSRRP [PRE1] is lower in protein stability index: 3.23 ± 0.063 for the first, 2.21 ± 0.074 for the second.

Compared with SSKLYQMQQQQQAQAQA [GAL11], SSKTSQPKPLFSFGKSD [YOR098C/NUP1] is higher in protein stability index: 2.09 ± 0.051 for the first, 2.4 ± 0.027 for the second.

First: SSLASQDVDFYKNLDRG [RRP6]
Second: SSLVRRNSVKLLSKLLL [YCS4]
The protein stability index of the first is lower: 1.37 ± 0.067 for the first, 1.61 ± 0.04 for the second.

Compared with SSQLNKLTDEQSSLDVA [SIR3], SSQVREHVKELLKYSNE [RPL1A] is lower in protein stability index: 2.93 ± 0.081 for the first, 2.23 ± 0.06 for the second.

Compared with SSSDFRLHYYPKDPSNV [BRR2], SSTQDVILRKISMLVTQ [CSI1] is lower in protein stability index: 3.29 ± 0.06 for the first, 1.75 ± 0.054 for the second.

SSVVSEPKKPSFTFASS [YOR098C/NUP1] and SSYEEFLERFDFYTRHH [ITC1] are within error of each other in protein stability index: 3.12 ± 0.038 for the first, 3.1 ± 0.083 for the second.

STEEIEYIELEYRDLYT [YMR129W/POM152] and STFGFNNSAPNNTNNAN [YJL041W/NSP1] are within error of each other in protein stability index: 3.04 ± 0.14 for the first, 3.18 ± 0.047 for the second.

First: STGCVVGLSQPDAKIQV [YMR129W/POM152]
Second: STGLKNASDALKGRVVE [RPS1B]
The protein stability index of the first is lower: 2.47 ± 0.21 for the first, 3.04 ± 0.099 for the second.

Going from STISAREIQTAVRLILP [HTB1] to STKELKFSDIIQGISKM [BRN1], the protein stability index rises from 2.31 ± 0.12 to 3.33 ± 0.084.

STKVENSAIIQNLRKEL [YIL149C/MLP2] and STLLCTDLESKSRMINF [SNU114] are within error of each other in protein stability index: 2.88 ± 0.12 for the first, 2.96 ± 0.052 for the second.

STMGTPTVHNSTAAAPI [PGD1] and STSGDPSEFHCLQDALD [SSN2] are within error of each other in protein stability index: 3.07 ± 0.059 for the first, 3.1 ± 0.12 for the second.

Going from STTEHINIDDLLYELTA [YJL039C/NUP192] to STTQEILEFITAAQVAN [RPC34], the protein stability index falls from 2.61 ± 0.092 to 1.71 ± 0.056.

First: STVAKNVSFVLPDEKSD [YCG1]
Second: STVASALDTNGTSATTE [SIR4]
The protein stability index of the first is higher: 3.16 ± 0.037 for the first, 2.15 ± 0.065 for the second.

Compared with STVKGSVDLEKLAFGLT [TAF14], STVSANHSNNDIPTIAD [BRN1] is lower in protein stability index: 3.45 ± 0.091 for the first, 3.03 ± 0.093 for the second.

Going from SVAEVFQKAQGSYAGHR [YCG1] to SVDIGVETILSGKARIC [FAS2], the protein stability index rises from 1.38 ± 0.18 to 2.75 ± 0.11.

SVDITGGPWFTDGELDI [RPC34] and SVDKKVDSGEERNEQER [SWI3] are within error of each other in protein stability index: 3.43 ± 0.12 for the first, 3.35 ± 0.14 for the second.

Going from SVDMSALKDPQTDADRV [RIP1] to SVEAYLVSLFEDTNLAA [HHT1], the protein stability index falls from 3.68 ± 0.23 to 2.86 ± 0.26.

Going from SVFDATSDPVMHKQLAY [RPN1] to SVFNAELLKLLNDEYNY [YCS4], the protein stability index rises from 2.17 ± 0.077 to 2.31 ± 0.062.

First: SVGTDPMPIITFLSEWG [RPB2]
Second: SVIPLKGRYAPETGDHV [RRP4]
The protein stability index of the first is lower: 1.99 ± 0.057 for the first, 2.52 ± 0.052 for the second.

Going from SVIVKFHSEPDRDENWI [LIN1] to SVKKAGASINSMKANTS [ARP7], the protein stability index falls from 3.08 ± 0.071 to 2.46 ± 0.05.

Going from SVKLDLQDDEDHKFPIR [BRN1] to SVKLKQKRLEAGALNLA [DIS3], the protein stability index rises from 2.88 ± 0.098 to 3.11 ± 0.12.

Compared with SVLHSWVQLVQIIVTDG [YJL039C/NUP192], SVLISIPLDNYDDFIYL [PCI8] is lower in protein stability index: 1.98 ± 0.056 for the first, 1.75 ± 0.055 for the second.

Compared with SVLQLFQSVQLNINNPN [SMC2], SVLSSKPGSKPEKTSTE [SIR3] is higher in protein stability index: 1.89 ± 0.045 for the first, 2.7 ± 0.19 for the second.

Compared with SVLYPDELEDDTLNETN [RRP43], SVNKNKRQAYAVSEKAG [RPL4A] is lower in protein stability index: 3.08 ± 0.071 for the first, 1.69 ± 0.17 for the second.

First: SVPIWVDTSTELESMLE [RRP6]
Second: SVQDLGGSATARHKKKV [YML031W/NDC1]
The protein stability index of the first is higher: 3.28 ± 0.16 for the first, 1.75 ± 0.069 for the second.

With SVSLLNSDIANLRTQVT [SMC1] the protein stability index was 3.08 ± 0.064.
